Target: T1, ROS3 (Arabidopsis thaliana, UniProt Q9FGT1 1-748)
T1 sequence: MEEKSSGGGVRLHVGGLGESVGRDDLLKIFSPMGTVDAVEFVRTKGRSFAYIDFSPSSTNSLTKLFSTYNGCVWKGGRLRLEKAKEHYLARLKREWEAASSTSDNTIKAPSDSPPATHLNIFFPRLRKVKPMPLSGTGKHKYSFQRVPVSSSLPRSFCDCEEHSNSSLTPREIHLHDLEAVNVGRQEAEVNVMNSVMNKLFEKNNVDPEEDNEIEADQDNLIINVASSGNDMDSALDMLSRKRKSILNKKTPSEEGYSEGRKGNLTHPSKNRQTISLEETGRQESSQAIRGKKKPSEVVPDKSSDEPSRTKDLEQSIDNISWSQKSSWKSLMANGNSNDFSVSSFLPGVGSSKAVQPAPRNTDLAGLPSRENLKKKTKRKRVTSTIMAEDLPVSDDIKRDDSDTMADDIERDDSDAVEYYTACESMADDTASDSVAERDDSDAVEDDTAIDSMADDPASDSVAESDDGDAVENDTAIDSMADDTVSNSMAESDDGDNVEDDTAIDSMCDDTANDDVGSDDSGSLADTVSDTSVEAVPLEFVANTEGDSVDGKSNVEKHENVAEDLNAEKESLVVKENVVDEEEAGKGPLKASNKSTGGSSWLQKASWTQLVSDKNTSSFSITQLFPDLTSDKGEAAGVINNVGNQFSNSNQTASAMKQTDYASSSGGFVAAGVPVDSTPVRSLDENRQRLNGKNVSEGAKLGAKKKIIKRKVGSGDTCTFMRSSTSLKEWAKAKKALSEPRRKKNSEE
Experiment: EMSA

UCGGGAGGGAAGCGGAUGGGGGCCG (ssRNA) [RNA (d) 25-nt]
binding result: binds

GGGAGUCCGGAGACGUCGGCGGGGG (ssRNA) [RNA (c) 25-nt]
binding result: binds
